The target in assay [1] is charged UFC1 (UFC1~UFM1): isopeptide‐linked UFC1 T106S/C116K ‐ Strep‐tagged UFM1 covalent complex (UniProt Q9Y3C8). Description: ITC. (Isothermal titration calorimetry measures the heat released or taken up as one component is titrated into another.)
Assay [2] addresses T1, UFC1 (E2), wild type, uncharged (UniProt Q9Y3C8 1-167).
T1 sequence: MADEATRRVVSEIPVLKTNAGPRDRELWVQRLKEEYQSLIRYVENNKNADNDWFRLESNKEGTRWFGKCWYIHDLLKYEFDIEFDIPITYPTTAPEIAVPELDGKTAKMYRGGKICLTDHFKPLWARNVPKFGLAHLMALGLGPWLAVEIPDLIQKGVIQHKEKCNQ
Description: NMR titration.

For assay [3], the target named is T1, UFC1 (E2), wild type, uncharged. Description: ITC.
The target of assay [4] is T2, UFC1 K47E (UniProt Q9Y3C8 1-167, K47E).
T2 sequence: T1 sequence with K47E
Description: ITC.

Numbering of substitutions follows the chain as printed. Where no end group is shown, it is not given here.

From paper PMC10702826 (EMBO Reports, 2023) come the findings set out here.

For orientation: Kd means the free concentration of one partner at which half of the binding sites on the other are occupied at equilibrium, for simple one-to-one binding. Low readings indicate tighter binding, high ones weaker binding. “DDRGK1‐UFL1 fusion protein (DDRGK1 207–314 ‐ UFL1 1–200) (from UniProt Q96HY6;O94874)” had a Kd in assay [1] of 2570 nM.
Still for that read-out and setting: in the case of “DDRGK1ext‐UFL1 extended fusion protein (DDRGK1 87–314 ‐ UFL1 1–200) (from UniProt Q96HY6 87-314; O94874 1-200)” it was 230 nM.

B1: UBA5 C‐terminus (UBA5 347–404) (domain or fragment)
chain: SEVSEEELKNFSGPVPDLPEGITVAYTIPKKQEDSVTELTVEDSGESLEDLMAKMKNM
modifications: also: uniformly 15N-labelled
As to B1, in assay [2], the binding result is recorded as “binds”.

B2: DDRGK1‐UFL1 fusion protein (DDRGK1 207–314 ‐ UFL1 1–200) (other)
chain: MTEEQSQSFLTEFINYIKQSKVVLLEDLASQVGLRTQDTINRIQDLLAEGTITGVIDDRGKFIYITPEELAAVANFIRQRGRVSIAELAQASNSLIAWGRESPAQAPAMADAWEEIRRLAADFQRAQFAEATQRLSERNCIEIVNKLIAQKQLEVVHTLDGKEYITPAQISKEMRDELHVRGGRVNIVDLQQVINVDLIHIENRIGDIIKSEKHVQLVLGQLIDENYLDRLAEEVNDKLQESGQVTISELCKTYDLPGNFLTQALTQRLGRIISGHIDLDNRGVIFTEAFVARHKARIRGLFSAITRP
Consider B2, for which the Kd in assay [3] came out at 2300 nM; in assay [4], 33.8 µM.
